T1: hAMY3R (human, UniProt P30988)
T1 sequence 1: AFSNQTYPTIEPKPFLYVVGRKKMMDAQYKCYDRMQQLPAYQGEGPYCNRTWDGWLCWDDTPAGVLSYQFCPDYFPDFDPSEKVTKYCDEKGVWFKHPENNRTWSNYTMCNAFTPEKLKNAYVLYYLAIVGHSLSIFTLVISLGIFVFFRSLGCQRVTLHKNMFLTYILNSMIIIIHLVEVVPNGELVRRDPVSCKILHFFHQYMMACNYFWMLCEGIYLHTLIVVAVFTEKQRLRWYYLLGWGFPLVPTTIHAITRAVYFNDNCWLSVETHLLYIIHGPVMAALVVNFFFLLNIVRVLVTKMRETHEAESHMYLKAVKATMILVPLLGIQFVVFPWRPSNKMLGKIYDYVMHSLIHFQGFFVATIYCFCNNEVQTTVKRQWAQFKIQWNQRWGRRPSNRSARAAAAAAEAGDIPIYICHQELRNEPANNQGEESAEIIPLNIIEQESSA
T1 sequence 2: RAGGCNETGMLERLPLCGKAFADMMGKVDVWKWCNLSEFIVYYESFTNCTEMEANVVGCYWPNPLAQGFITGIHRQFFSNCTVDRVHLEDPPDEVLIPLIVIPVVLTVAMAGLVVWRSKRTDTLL

The values below come from US12139520B2 (priority 2020, dated 2024).

Bridge positions count the residues as written; N and C are the ends. Square brackets hold non-standard residues; d marks the D form. Ends that are not written are not given here. Hyp = O=C(O)[C@@H]1C[C@@H](O)CN1; Cit = NC(=O)NCCC[C@H](N)C(=O)O Bounds are passed on as bounds.

The target in the first test is T1, hAMY3R. Kind of test: cell-based or functional assay.
With KCNTATCTVQWLAHQIYQFTDKDKDNVAPRTKVGSNG[Hyp]-NH2 (disulfide 2-7 (inferred); ends not checked) [SEQ ID NO: 312], the “hAMY3R EC50 (cAMP)” value is 0.012 nM.

Consider RCQASTCTVA[Cit]LAEQIAQYTDKDKDQVAPPTEVGPNS[Hyp]-NH2 (disulfide 2-7 (inferred); ends not checked) [SEQ ID NO: 33], for which the “hAMY3R EC50 (cAMP)” value was determined as 0.008 nM.

As to KCNTATCTVQWLAHQIYQFTKDKDNVAPPTNVGSNG[Hyp]-NH2 (disulfide 2-7 (inferred); ends not checked) [SEQ ID NO: 317], the “hAMY3R EC50 (cAMP)” value worked out at 0.004 nM.

For the molecule KCNTATCTVQWLAHQIYQFTDKDKDNVAPATNVGSNG[Hyp]-NH2 (disulfide 2-7 (inferred); ends not checked) [SEQ ID NO: 316], the “hAMY3R EC50 (cAMP)” value was 0.012 nM.

Turning to GCRFGTCTVQWLAHQIYQFTDKDKDNVAPRTNIGPNG[Hyp]-NH2 (disulfide 2-7 (inferred); ends not checked) [SEQ ID NO: 331], the “hAMY3R EC50 (cAMP)” value came to 0.006 nM.

For GCRFGTCTVQWLAHQIYQFTDKDKDNVAPRTKVGPQG[Hyp]-NH2 (disulfide 2-7 (inferred); ends not checked) [SEQ ID NO: 322], the “hAMY3R EC50 (cAMP)” value was 0.014 nM.

KCNTATCTVQWLAEQIYQFTDKDKDNVAPPYNEGSNG[Hyp]-NH2 (disulfide 2-7 (inferred); ends not checked) [SEQ ID NO: 321]: the “hAMY3R EC50 (cAMP)” value turned out to be 0.317 nM.

As to KCNTATCTVQWLAHQIYQFTDKDKDNAAPPTNVGSNG[Hyp]-NH2 (disulfide 2-7 (inferred); ends not checked) [SEQ ID NO: 315], the “hAMY3R EC50 (cAMP)” value came to 0.012 nM.

On to KCNTATCTVQWLAHQIYQFTDKDKDAVAPPTNVGSNG[Hyp]-NH2 (disulfide 2-7 (inferred); ends not checked) [SEQ ID NO: 324], for which the “hAMY3R EC50 (cAMP)” value stood at 0.028 nM.

As to KCNTATCTVQWLAHQIYQFADKDKDNVAPPTNVGSNG[Hyp]-NH2 (disulfide 2-7 (inferred); ends not checked) [SEQ ID NO: 313], the “hAMY3R EC50 (cAMP)” value came out at 0.004 nM.

For KCNTATCTVQWLAHQIYQFTDKDKDNVPPTNVGSNG[Hyp]-NH2 (disulfide 2-7 (inferred); ends not checked) [SEQ ID NO: 318], the “hAMY3R EC50 (cAMP)” value was 0.009 nM.

Turning to KCNTATCTVQWLAHQIYQFTDKDKANVAPPTNVGSNG[Hyp]-NH2 (disulfide 2-7 (inferred); ends not checked) [SEQ ID NO: 314], the “hAMY3R EC50 (cAMP)” value was determined as 0.008 nM.

Take KCNTATCTVQWLAHQIYQFTDKDKDNVAAPTNVGSNG[Hyp]-NH2 (disulfide 2-7 (inferred); ends not checked) [SEQ ID NO: 325]: the “hAMY3R EC50 (cAMP)” value was found to be 0.025 nM.

In the case of KCNTATCTVQWLAHQIYQFTDADKDNVAPPTNVGSNG[Hyp]-NH2 (disulfide 2-7 (inferred); ends not checked) [SEQ ID NO: 328], the “hAMY3R EC50 (cAMP)” value stood at 0.01 nM.

Regarding KCNTATCTVQWLAHQIYQFTDKAKDNVAPPTNVGSNG[Hyp]-NH2 (disulfide 2-7 (inferred); ends not checked) [SEQ ID NO: 320], the “hAMY3R EC50 (cAMP)” value worked out at 0.009 nM.

Consider KCNTATCTVQWLAHQIYQFTDKDKDNVAPTNVGSNG[Hyp]-NH2 (disulfide 2-7 (inferred); ends not checked) [SEQ ID NO: 319], for which the “hAMY3R EC50 (cAMP)” value worked out at 0.018 nM.

In the case of GCRTGTCTVQWLAHQIYQFTDKDKDNVAPRTNVGPNGY [SEQ ID NO: 332], the “hAMY3R EC50 (cAMP)” value was found to be 0.007 nM.

Take KCNTATCTVQWLAHQIYQFTDKDKDNVAPPTNVGSNG[Hyp]-NH2 (disulfide 2-7 (inferred); ends not checked) [SEQ ID NO: 330]: the “hAMY3R EC50 (cAMP)” value was 0.008 nM.

As to GCRFGTCTVQWLANFLYQFTDKDKDNVAPRTNVGPQGY [SEQ ID NO: 311], the “hAMY3R EC50 (cAMP)” value came out at 0.06 nM.

As to GCRFGTCTVQWLAHFLYQFTDKDKDNVAPRTNVGSNTY [SEQ ID NO: 327], the “hAMY3R EC50 (cAMP)” value is 0.09 nM.

GCRFGTCTVQWLAHFLYQFTDKDKDNVAPRTNVGPQGY [SEQ ID NO: 326]: the “hAMY3R EC50 (cAMP)” value is 0.053 nM.

Regarding RCQTSTCTVARLAEQIAQYTDKDKDQVAPPTNVGSNS[Hyp]-NH2 (disulfide 2-7 (inferred); ends not checked) [SEQ ID NO: 32], the “hAMY3R EC50 (cAMP)” value came out at 0.008 nM.

Take KCNTSTCTVAWLADQITQFSDKDKANVSPPTEVGPNS[Hyp]-NH2 (disulfide 2-7 (inferred); ends not checked) [SEQ ID NO: 310]: the “hAMY3R EC50 (cAMP)” value was 0.003 nM.

As to KCNTATCTVQWLAHQIYQFDKDKDNVAPPTNVGSNG[Hyp]-NH2 (disulfide 2-7 (inferred); ends not checked) [SEQ ID NO: 329], the “hAMY3R EC50 (cAMP)” value turned out to be 0.032 nM.

As for GCRTGTCTVQWLAHQIYQFTDKDKDNVAPRTNVGPQG[Hyp]-NH2 (disulfide 2-7 (inferred); ends not checked) [SEQ ID NO: 323], the “hAMY3R EC50 (cAMP)” value was determined as 0.014 nM.

Another test addresses hAM1R (human, UniProt Q16602). Kind of test: cell-based or functional assay.
In the case of KCNTATCTVQWLAHQIYQFTDKDKDNVAPRTKVGSNG[Hyp]-NH2 (disulfide 2-7 (inferred); ends not checked) [SEQ ID NO: 312], the “hAM1R EC50 (cAMP)” value is greater than 5000 nM.

Consider RCQASTCTVA[Cit]LAEQIAQYTDKDKDQVAPPTEVGPNS[Hyp]-NH2 (disulfide 2-7 (inferred); ends not checked) [SEQ ID NO: 33], for which the “hAM1R EC50 (cAMP)” value is greater than 5000 nM.

Take KCNTATCTVQWLAHQIYQFTKDKDNVAPPTNVGSNG[Hyp]-NH2 (disulfide 2-7 (inferred); ends not checked) [SEQ ID NO: 317]: the “hAM1R EC50 (cAMP)” value is greater than 5000 nM.

With KCNTATCTVQWLAHQIYQFTDKDKDNVAPATNVGSNG[Hyp]-NH2 (disulfide 2-7 (inferred); ends not checked) [SEQ ID NO: 316], the “hAM1R EC50 (cAMP)” value was greater than 5000 nM.

GCRFGTCTVQWLAHQIYQFTDKDKDNVAPRTNIGPNG[Hyp]-NH2 (disulfide 2-7 (inferred); ends not checked) [SEQ ID NO: 331]: the “hAM1R EC50 (cAMP)” value came to 3570 nM.

As for GCRFGTCTVQWLAHQIYQFTDKDKDNVAPRTKVGPQG[Hyp]-NH2 (disulfide 2-7 (inferred); ends not checked) [SEQ ID NO: 322], the “hAM1R EC50 (cAMP)” value was 1390 nM.

On to KCNTATCTVQWLAEQIYQFTDKDKDNVAPPYNEGSNG[Hyp]-NH2 (disulfide 2-7 (inferred); ends not checked) [SEQ ID NO: 321], for which the “hAM1R EC50 (cAMP)” value was greater than 5000 nM.

Regarding KCNTATCTVQWLAHQIYQFTDKDKDNAAPPTNVGSNG[Hyp]-NH2 (disulfide 2-7 (inferred); ends not checked) [SEQ ID NO: 315], the “hAM1R EC50 (cAMP)” value is greater than 5000 nM.

KCNTATCTVQWLAHQIYQFTDKDKDAVAPPTNVGSNG[Hyp]-NH2 (disulfide 2-7 (inferred); ends not checked) [SEQ ID NO: 324]: the “hAM1R EC50 (cAMP)” value is greater than 5000 nM.

In the case of KCNTATCTVQWLAHQIYQFADKDKDNVAPPTNVGSNG[Hyp]-NH2 (disulfide 2-7 (inferred); ends not checked) [SEQ ID NO: 313], the “hAM1R EC50 (cAMP)” value is greater than 5000 nM.

As to KCNTATCTVQWLAHQIYQFTDKDKDNVPPTNVGSNG[Hyp]-NH2 (disulfide 2-7 (inferred); ends not checked) [SEQ ID NO: 318], the “hAM1R EC50 (cAMP)” value was greater than 5000 nM.

Consider KCNTATCTVQWLAHQIYQFTDKDKANVAPPTNVGSNG[Hyp]-NH2 (disulfide 2-7 (inferred); ends not checked) [SEQ ID NO: 314], for which the “hAM1R EC50 (cAMP)” value is greater than 5000 nM.

For the molecule KCNTATCTVQWLAHQIYQFTDKDKDNVAAPTNVGSNG[Hyp]-NH2 (disulfide 2-7 (inferred); ends not checked) [SEQ ID NO: 325], the “hAM1R EC50 (cAMP)” value was greater than 5000 nM.

Consider KCNTATCTVQWLAHQIYQFTDADKDNVAPPTNVGSNG[Hyp]-NH2 (disulfide 2-7 (inferred); ends not checked) [SEQ ID NO: 328], for which the “hAM1R EC50 (cAMP)” value was greater than 5000 nM.

Take KCNTATCTVQWLAHQIYQFTDKAKDNVAPPTNVGSNG[Hyp]-NH2 (disulfide 2-7 (inferred); ends not checked) [SEQ ID NO: 320]: the “hAM1R EC50 (cAMP)” value was greater than 5000 nM.

For KCNTATCTVQWLAHQIYQFTDKDKDNVAPTNVGSNG[Hyp]-NH2 (disulfide 2-7 (inferred); ends not checked) [SEQ ID NO: 319], the “hAM1R EC50 (cAMP)” value was greater than 5000 nM.

With GCRTGTCTVQWLAHQIYQFTDKDKDNVAPRTNVGPNGY [SEQ ID NO: 332], the “hAM1R EC50 (cAMP)” value is greater than 5000 nM.

For the molecule KCNTATCTVQWLAHQIYQFTDKDKDNVAPPTNVGSNG[Hyp]-NH2 (disulfide 2-7 (inferred); ends not checked) [SEQ ID NO: 330], the “hAM1R EC50 (cAMP)” value is greater than 5000 nM.

On to GCRFGTCTVQWLANFLYQFTDKDKDNVAPRTNVGPQGY [SEQ ID NO: 311], for which the “hAM1R EC50 (cAMP)” value was greater than 5000 nM.

Turning to GCRFGTCTVQWLAHFLYQFTDKDKDNVAPRTNVGSNTY [SEQ ID NO: 327], the “hAM1R EC50 (cAMP)” value is greater than 5000 nM.

In the case of GCRFGTCTVQWLAHFLYQFTDKDKDNVAPRTNVGPQGY [SEQ ID NO: 326], the “hAM1R EC50 (cAMP)” value was greater than 5000 nM.

Consider RCQTSTCTVARLAEQIAQYTDKDKDQVAPPTNVGSNS[Hyp]-NH2 (disulfide 2-7 (inferred); ends not checked) [SEQ ID NO: 32], for which the “hAM1R EC50 (cAMP)” value was greater than 5000 nM.

As to KCNTSTCTVAWLADQITQFSDKDKANVSPPTEVGPNS[Hyp]-NH2 (disulfide 2-7 (inferred); ends not checked) [SEQ ID NO: 310], the “hAM1R EC50 (cAMP)” value was greater than 5000 nM.

Consider KCNTATCTVQWLAHQIYQFDKDKDNVAPPTNVGSNG[Hyp]-NH2 (disulfide 2-7 (inferred); ends not checked) [SEQ ID NO: 329], for which the “hAM1R EC50 (cAMP)” value was greater than 5000 nM.

For the molecule GCRTGTCTVQWLAHQIYQFTDKDKDNVAPRTNVGPQG[Hyp]-NH2 (disulfide 2-7 (inferred); ends not checked) [SEQ ID NO: 323], the “hAM1R EC50 (cAMP)” value is greater than 5000 nM.
